Data as given in US20090202532A1 (TOHOKU UNIVERSITY, published 2009).

Target: human EGF receptor 1 (human, UniProt P00533 25-1210)
Assay: cell-based or functional assay

B1: Ex3 scFv-Fc, IgG-type bispecific antibody of OHL-Fc and 5HL-CL (bispecific antibody)
heavy: not shown
light: QVQLVQSGAEVKKPGASVKVSCKASGYTFTSYWMHWVRQAPGQGLEWMGNIYPGSGGTNYAEKFKNRVTMTRDTSISTAYMELSRLRSDDTAVYYCARSGGPYFFDYWGQGTLVTVSSAGGGGSGGGGSGGGGSDIVMTQSPLSLPVTPGEPASISCRSSQNIVHNNGITYLEWYLQKPGQSPQLLIYKVSDRFSGVPDRFSGSGSGTDFTLKISRVEAEDVGVYYCFQGSHIPPTFGQGTKVEIKRTVAAPSVFIFPPSDEQLKSGTASVVCLLNNFYPREAKVQWKVDNALQSGNSQESVTEQDSKDSTYSLSSTLTLSKADYEKHKVYACEVTHQGLSSPVTKSFNRGEC
With B1 the “cytotoxicity, 51Cr release assay (Colo-Tc, EGFR/CHO and CHO cells)” value was ~0.002 fold of the concentration of Ex3.
